System: Escherichia coli TOP10
Experiment: shrunken log2 fold change of peptide-encoding DNA abundance (4.5 h post-induction vs induction); higher = less antimicrobial activity (less host growth inhibition)
Conditions: time post-induction: 4.5 h; library: site-saturation at positions 5, 18, 19, 20
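Note: peptides expressed intracellularly from a pBAD plasmid library in pooled LB shake-flask culture, induced with 0.3% L-arabinose, DNA abundance read by NGS, three biological replicates, DESeq2 with apeglm shrinkage.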

Row | Sequence | shrunken log2 fold change
1 | RRIRPRPPRLPRPRPRPYSYPRP | -0.228
2 | RRIRARPPRLPRPRPRPNYWPRP | 0.0678
3 | RRIRWRPPRLPRPRPRPSIDPRP | 0.452
4 | RRIRNRPPRLPRPRPRPKYGPRP | -0.174
5 | RRIRRRPPRLPRPRPRPITKPRP | 0.165
6 | RRIRQRPPRLPRPRPRPSAWPRP | 0.19
7 | RRIRWRPPRLPRPRPRPYPFPRP | -0.0811
8 | RRIRDRPPRLPRPRPRPTECPRP | -0.0183
9 | RRIRPRPPRLPRPRPRPLVTPRP | -0.302
10 | RRIRQRPPRLPRPRPRPNTAPRP | -0.0235
11 | RRIRNRPPRLPRPRPRPDWIPRP | 0.0186
12 | RRIRLRPPRLPRPRPRPDCDPRP | 0.183
13 | RRIRPRPPRLPRPRPRPCVMPRP | -0.162
14 | RRIRGRPPRLPRPRPRPHKQPRP | 0.0331
15 | RRIRRRPPRLPRPRPRPSLNPRP | 0.00555
16 | RRIRPRPPRLPRPRPRPDQAPRP | -0.0505
17 | RRIRYRPPRLPRPRPRPIYFPRP | 0.548
18 | RRIRDRPPRLPRPRPRPQRGPRP | 0.0499
19 | RRIRERPPRLPRPRPRPDELPRP | -0.00377
20 | RRIRARPPRLPRPRPRPPHEPRP | 1.29
21 | RRIRNRPPRLPRPRPRPPRAPRP | 0.658
22 | RRIRTRPPRLPRPRPRPCDNPRP | -0.267
23 | RRIRKRPPRLPRPRPRPYYDPRP | -0.204
24 | RRIRARPPRLPRPRPRPWRLPRP | 0.466
25 | RRIRYRPPRLPRPRPRPAPMPRP | -0.0449

Row | Sequence | shrunken log2 fold change
26 | RRIRGRPPRLPRPRPRPHNIPRP | -0.386
27 | RRIRYRPPRLPRPRPRPTLKPRP | -0.283
28 | RRIRMRPPRLPRPRPRPMLFPRP | 0.138
29 | RRIRWRPPRLPRPRPRPEPVPRP | -0.0131
30 | RRIRGRPPRLPRPRPRPEAQPRP | 1.61
31 | RRIRHRPPRLPRPRPRPYDQPRP | -0.291
32 | RRIRWRPPRLPRPRPRPPMIPRP | -0.103
33 | RRIRERPPRLPRPRPRPTEPPRP | 0.0207
34 | RRIRTRPPRLPRPRPRPECGPRP | 0.51
35 | RRIRERPPRLPRPRPRPRSGPRP | -0.049
36 | RRIRNRPPRLPRPRPRPRVSPRP | 0.0988
37 | RRIRARPPRLPRPRPRPRNTPRP | 0.146
38 | RRIRARPPRLPRPRPRPQTHPRP | 0.491
39 | RRIRCRPPRLPRPRPRPFFCPRP | -0.132
40 | RRIRERPPRLPRPRPRPSYVPRP | -0.264
41 | RRIRYRPPRLPRPRPRPIRYPRP | -0.00146
42 | RRIRFRPPRLPRPRPRPCKRPRP | 0.0187
43 | RRIRARPPRLPRPRPRPGPDPRP | 0.455
44 | RRIRSRPPRLPRPRPRPYIEPRP | -0.183
45 | RRIRRRPPRLPRPRPRPDSTPRP | 0.187
46 | RRIRYRPPRLPRPRPRPHPAPRP | -0.333
47 | RRIRMRPPRLPRPRPRPSSRPRP | 0.208
48 | RRIRKRPPRLPRPRPRPLAFPRP | 0.278
49 | RRIRTRPPRLPRPRPRPQNHPRP | -1.49
50 | RRIRKRPPRLPRPRPRPMRIPRP | 0.34

Row | Sequence | shrunken log2 fold change
51 | RRIRDRPPRLPRPRPRPDDLPRP | 0.00447
52 | RRIRYRPPRLPRPRPRPARIPRP | 0.0141
53 | RRIRNRPPRLPRPRPRPVGFPRP | 0.165
54 | RRIRKRPPRLPRPRPRPHIKPRP | -0.0411
55 | RRIRQRPPRLPRPRPRPSIIPRP | -0.63
56 | RRIRIRPPRLPRPRPRPWNWPRP | 0.0631
57 | RRIRQRPPRLPRPRPRPHCRPRP | 0.0105
58 | RRIRKRPPRLPRPRPRPNTQPRP | -0.0781
59 | RRIRVRPPRLPRPRPRPDTHPRP | -0.214
60 | RRIRSRPPRLPRPRPRPPLRPRP | 0.249
61 | RRIRGRPPRLPRPRPRPAAFPRP | 0.724
62 | RRIRKRPPRLPRPRPRPLTLPRP | 0.0103
63 | RRIRKRPPRLPRPRPRPRVAPRP | 1.11
64 | RRIRQRPPRLPRPRPRPTFRPRP | -0.232
65 | RRIRDRPPRLPRPRPRPTPIPRP | 0.103
66 | RRIRVRPPRLPRPRPRPETYPRP | -0.316
67 | RRIRCRPPRLPRPRPRPWALPRP | 0.0591
68 | RRIRQRPPRLPRPRPRPEYQPRP | 0.00438
69 | RRIRQRPPRLPRPRPRPLNTPRP | -0.937
70 | RRIRHRPPRLPRPRPRPKFEPRP | -0.125
71 | RRIRQRPPRLPRPRPRPTYPPRP | 0.0397
72 | RRIRVRPPRLPRPRPRPDPEPRP | -0.0984
73 | RRIRYRPPRLPRPRPRPETVPRP | -0.0477
74 | RRIRVRPPRLPRPRPRPWFVPRP | -0.475
75 | RRIRDRPPRLPRPRPRPAKEPRP | 0.0263

Row | Sequence | shrunken log2 fold change
76 | RRIRPRPPRLPRPRPRPEFAPRP | 0.602
77 | RRIRYRPPRLPRPRPRPVVAPRP | -0.32
78 | RRIRRRPPRLPRPRPRPGWQPRP | 0.381
79 | RRIRQRPPRLPRPRPRPMFMPRP | -0.0688
80 | RRIRFRPPRLPRPRPRPRQAPRP | 0.128
81 | RRIRKRPPRLPRPRPRPDHIPRP | -0.0249
82 | RRIRGRPPRLPRPRPRPDPWPRP | 0.53
83 | RRIRERPPRLPRPRPRPFHIPRP | -0.133
84 | RRIRMRPPRLPRPRPRPFWFPRP | 0.132
85 | RRIRARPPRLPRPRPRPKTRPRP | 0.689
86 | RRIRKRPPRLPRPRPRPTVHPRP | 0.467
87 | RRIRLRPPRLPRPRPRPCAQPRP | -0.161
88 | RRIRIRPPRLPRPRPRPTPCPRP | 0.598
89 | RRIRRRPPRLPRPRPRPTWWPRP | 0.57
90 | RRIRPRPPRLPRPRPRPVHVPRP | 0.18
91 | RRIRGRPPRLPRPRPRPEEAPRP | 2.32
92 | RRIRYRPPRLPRPRPRPKQFPRP | -0.155
93 | RRIRVRPPRLPRPRPRPDEDPRP | 0.185
94 | RRIRLRPPRLPRPRPRPYRVPRP | -0.00141
95 | RRIRVRPPRLPRPRPRPPWNPRP | 0.0143
96 | RRIRWRPPRLPRPRPRPCPNPRP | -0.184
97 | RRIRPRPPRLPRPRPRPESWPRP | 1.54
98 | RRIRPRPPRLPRPRPRPYVGPRP | -0.157
99 | RRIRARPPRLPRPRPRPSVTPRP | 0.0595
100 | RRIRERPPRLPRPRPRPHADPRP | 0.0454

Row | Sequence | shrunken log2 fold change
101 | RRIRRRPPRLPRPRPRPFHFPRP | -0.413
102 | RRIRHRPPRLPRPRPRPDAEPRP | 0.205
103 | RRIRDRPPRLPRPRPRPQVIPRP | -0.0205
104 | RRIRVRPPRLPRPRPRPRFPPRP | 0.285
105 | RRIRYRPPRLPRPRPRPTHVPRP | -0.27
106 | RRIRLRPPRLPRPRPRPSSSPRP | 0.172
107 | RRIRGRPPRLPRPRPRPQPGPRP | 0.606
108 | RRIRIRPPRLPRPRPRPRWIPRP | -0.0611
109 | RRIRDRPPRLPRPRPRPHCQPRP | -0.146
110 | RRIRDRPPRLPRPRPRPSGFPRP | 0.029
111 | RRIRGRPPRLPRPRPRPKSSPRP | 0.508
112 | RRIRGRPPRLPRPRPRPVMFPRP | 0.451
113 | RRIRDRPPRLPRPRPRPAENPRP | 0.224
114 | RRIRPRPPRLPRPRPRPKKSPRP | 0.085
115 | RRIRERPPRLPRPRPRPPQFPRP | -0.151
116 | RRIRRRPPRLPRPRPRPLQTPRP | 1.59
117 | RRIRERPPRLPRPRPRPIIWPRP | -0.204
118 | RRIRSRPPRLPRPRPRPHFWPRP | 0.0758
119 | RRIRERPPRLPRPRPRPFIEPRP | -0.59
120 | RRIRNRPPRLPRPRPRPYHNPRP | -0.275
121 | RRIRKRPPRLPRPRPRPRCWPRP | 0.931
122 | RRIRGRPPRLPRPRPRPVLLPRP | 0.122
123 | RRIRTRPPRLPRPRPRPSNEPRP | -0.34
124 | RRIRLRPPRLPRPRPRPQWWPRP | 0.491
125 | RRIRWRPPRLPRPRPRPLDEPRP | 0.53

Row | Sequence | shrunken log2 fold change
126 | RRIRHRPPRLPRPRPRPNWDPRP | -0.332
127 | RRIRARPPRLPRPRPRPPCIPRP | -0.111
128 | RRIRRRPPRLPRPRPRPMTFPRP | 0.164
129 | RRIRNRPPRLPRPRPRPTARPRP | 0.198
130 | RRIRRRPPRLPRPRPRPFKVPRP | -0.0272
131 | RRIRDRPPRLPRPRPRPKDLPRP | -0.0191
132 | RRIRVRPPRLPRPRPRPSDAPRP | -0.203
133 | RRIRYRPPRLPRPRPRPPLEPRP | 0.119
134 | RRIRDRPPRLPRPRPRPESNPRP | 0.892
135 | RRIRCRPPRLPRPRPRPIFAPRP | 0.373
136 | RRIRLRPPRLPRPRPRPGISPRP | -0.00752
137 | RRIRPRPPRLPRPRPRPGSPPRP | 0.0761
138 | RRIRDRPPRLPRPRPRPDKTPRP | 0.0138
139 | RRIRHRPPRLPRPRPRPICSPRP | 0.0153
140 | RRIRIRPPRLPRPRPRPNAAPRP | -0.014
141 | RRIRYRPPRLPRPRPRPLEDPRP | -0.00931
142 | RRIRIRPPRLPRPRPRPDVRPRP | 0.0768
143 | RRIRARPPRLPRPRPRPCVYPRP | 0.121
144 | RRIRHRPPRLPRPRPRPGPIPRP | -0.133
145 | RRIRPRPPRLPRPRPRPRPHPRP | 0.499
146 | RRIRVRPPRLPRPRPRPKSHPRP | 1.35
147 | RRIRIRPPRLPRPRPRPQVQPRP | -0.195
148 | RRIRGRPPRLPRPRPRPNLEPRP | 0.678
149 | RRIRPRPPRLPRPRPRPMDAPRP | -0.128
150 | RRIRARPPRLPRPRPRPEHRPRP | 0.0198
